Paper PMC10618235
Read-outs that look alike come from different tables or passages of the source. One block for each substance: values may come before it.

How the values were obtained:
[1] = biological target: FBXL6 (F-Box and Leucine Rich Repeat Protein 6) (UniProt Q8N531); experiment: co-IP with anti-Flag IgG, blot; conditions: reference: wild-type TKT; sites T287

Substance: TKT (transketolase): VRK2 inhibition (IC261, 5 μM) or siVRK2
other (phosphorylation at T287): decreases

binding against the reference [1]: lost
Substance: TKT (transketolase) (from UniProt P29401) TKT T287A

Substance: TKT (transketolase): K16A
enzymatic_activity (ubiquitination at K16): abolishes
localisation_or_trafficking (ubiquitination at K16): changes
other (ubiquitination at K16): decreases

Substance: TKT (transketolase): T287A
enzymatic_activity (phosphorylation at T287): decreases
localisation_or_trafficking (phosphorylation at T287): changes
other (phosphorylation at T287): decreases

Substance: TKT (transketolase): K319A
enzymatic_activity (ubiquitination at K319): abolishes
localisation_or_trafficking (ubiquitination at K319): changes
other (ubiquitination at K319): decreases
